Experimental data from the supplement of paper PMC9876800.

Tested on: peptide library, one residue held at a place counted from the S/T acceptor
Assay: relative phosphorylation of the sub-library (ratio to the mean residue at this position); higher = residue favoured
How it was run: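 Relative sub-library phosphorylation is a ratio to the mean residue at the same position. Purified recombinant kinases were incubated under kinase-specific conditions with biotinylated degenerate peptide sub-libraries, each fixing one residue at one position around a central Ser/Thr, using 50 μM peptide and 50 μM ATP spiked with γ-32P-ATP for 90 min. Spots captured on streptavidin membranes were phosphorimaged and quantified by densitometry.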

Chain of GRK3, construct: Full length, human (P35626 whole entry, looked up): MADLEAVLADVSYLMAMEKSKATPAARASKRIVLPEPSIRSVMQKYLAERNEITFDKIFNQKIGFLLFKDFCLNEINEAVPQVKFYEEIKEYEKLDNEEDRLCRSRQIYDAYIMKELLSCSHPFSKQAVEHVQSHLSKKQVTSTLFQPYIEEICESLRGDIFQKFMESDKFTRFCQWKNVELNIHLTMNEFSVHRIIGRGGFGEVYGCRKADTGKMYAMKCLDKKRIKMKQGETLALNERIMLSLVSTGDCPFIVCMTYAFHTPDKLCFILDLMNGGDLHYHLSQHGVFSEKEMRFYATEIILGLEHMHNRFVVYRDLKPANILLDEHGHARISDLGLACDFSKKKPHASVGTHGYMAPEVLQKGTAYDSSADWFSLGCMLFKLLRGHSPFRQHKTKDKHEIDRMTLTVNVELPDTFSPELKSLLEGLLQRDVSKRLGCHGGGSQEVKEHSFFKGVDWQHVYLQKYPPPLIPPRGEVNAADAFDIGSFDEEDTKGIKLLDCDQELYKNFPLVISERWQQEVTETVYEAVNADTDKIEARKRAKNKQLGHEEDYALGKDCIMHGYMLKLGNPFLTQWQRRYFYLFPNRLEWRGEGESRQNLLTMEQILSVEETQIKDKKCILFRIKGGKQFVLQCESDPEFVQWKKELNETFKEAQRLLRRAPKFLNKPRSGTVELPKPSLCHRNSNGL

GRK3, construct: Full length, human (from UniProt P35626)
relative phosphorylation
Settings	at +1	at +2	at +3	at +4	at -1	at -2	at -3	at -4	at -5
A fixed	0.782	1.39	0.849	0.868	0.913	0.745	0.971	1	1.03
D fixed	1.07	0.888	1.9	1.5	1.25	1.53	2.52	1.73	1.39
E fixed	1.75	0.887	1.99	1.36	1.62	4.07	3.01	1.78	1.2
F fixed	1.36	1.18	0.882	0.855	0.914	0.895	0.666	0.868	1.1
G fixed	0.857	0.967	1.04	1	0.703	0.784	0.822	0.962	0.9
H fixed	0.973	1.22	1.03	1.06	1.06	0.755	0.631	0.892	0.929
I fixed	1.27	1.44	0.933	1.1	0.913	0.573	0.649	0.855	1.06
K fixed	0.51	0.51	0.614	0.725	0.658	0.59	0.629	0.843	0.824
L fixed	0.766	0.705	0.898	0.829	0.979	0.688	0.604	0.844	1.03
M fixed	1.24	0.904	0.979	0.994	1.05	0.746	0.68	1	0.964
N fixed	0.742	0.874	0.922	1.03	1.02	0.854	0.845	0.932	0.946
P fixed	0.477	0.495	0.638	1.01	1.4	0.833	0.907	0.974	0.788
Q fixed	1.03	0.781	0.712	0.877	0.843	0.733	0.663	0.83	0.758
R fixed	0.646	0.614	0.631	0.709	0.819	1.13	1.6	1.1	0.933
V fixed	1.55	1.71	0.862	0.843	1.15	0.612	0.603	0.729	0.893
W fixed	0.93	0.948	0.922	1.25	0.595	0.657	0.592	0.815	1.02
Y fixed	1.03	1.48	1.2	0.992	1.12	0.794	0.605	0.847	1.23
pThr fixed	7.07	1.13	1.13	2.86	1.38	5.37	5.68	2.74	1.72
pTyr fixed	3.27	1.99	2.21	1.72	3.26	18.2	6.04	3.04	2.78
